# Measurements as given in patent publication US20250326843A1 (published 2025).
# T1: human B7-H4 (human, UniProt Q7Z7D3 25-282)
# T1 chain: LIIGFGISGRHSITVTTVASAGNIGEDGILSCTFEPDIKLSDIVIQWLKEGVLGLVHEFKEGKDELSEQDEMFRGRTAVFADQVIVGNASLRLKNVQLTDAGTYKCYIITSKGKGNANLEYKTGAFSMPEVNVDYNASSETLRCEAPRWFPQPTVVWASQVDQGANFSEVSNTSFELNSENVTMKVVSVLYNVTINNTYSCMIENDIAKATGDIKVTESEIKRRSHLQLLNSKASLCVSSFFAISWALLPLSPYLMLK
# T2: murine B7-H4 (murine, UniProt Q7TSP5 25-257)
# T2 chain: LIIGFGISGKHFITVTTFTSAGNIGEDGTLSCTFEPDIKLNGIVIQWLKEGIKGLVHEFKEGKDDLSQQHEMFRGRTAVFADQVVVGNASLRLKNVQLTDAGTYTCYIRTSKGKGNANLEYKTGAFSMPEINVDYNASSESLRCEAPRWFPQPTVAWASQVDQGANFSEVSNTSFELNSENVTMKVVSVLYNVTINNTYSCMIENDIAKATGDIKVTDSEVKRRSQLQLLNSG
# T3: cynomolgus monkey B7-H4 (cynomolgus monkey, UniProt A0A2K5U6P5 25-282)
# T3 chain: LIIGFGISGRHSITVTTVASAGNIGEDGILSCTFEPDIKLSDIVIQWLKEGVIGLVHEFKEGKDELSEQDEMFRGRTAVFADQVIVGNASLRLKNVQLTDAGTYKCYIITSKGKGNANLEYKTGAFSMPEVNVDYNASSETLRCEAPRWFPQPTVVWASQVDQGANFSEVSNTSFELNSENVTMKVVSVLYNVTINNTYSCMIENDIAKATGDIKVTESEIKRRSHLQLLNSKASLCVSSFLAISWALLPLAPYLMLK
# Legend:
# human B7-H4 = target: T1, human B7-H4; experiment: flow cytometry; CHO-K1/hu B7H4 cells
# murine B7-H4 = target: T2, murine B7-H4; experiment: flow cytometry; CHO-K1/m B7H4 cells
# cynomolgus monkey B7-H4 = target: T3, cynomolgus monkey B7-H4; experiment: flow cytometry; CHO-K1/cyno B7H4 cells
# CD3 on human T cells = CD3 on human T cells (human, UniProt P07766 23-207); experiment: flow cytometry; T cells
# human 4-1BB = human 4-1BB (human, UniProt Q07011 24-255); experiment: flow cytometry
# Chain of human 4-1BB (Q07011 24-255): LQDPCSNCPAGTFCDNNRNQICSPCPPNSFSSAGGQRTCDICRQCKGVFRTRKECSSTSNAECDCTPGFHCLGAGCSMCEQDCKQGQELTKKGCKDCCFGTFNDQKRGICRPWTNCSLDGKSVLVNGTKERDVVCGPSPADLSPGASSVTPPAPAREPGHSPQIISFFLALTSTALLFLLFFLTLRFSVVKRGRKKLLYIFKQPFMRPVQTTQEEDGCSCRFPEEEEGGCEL
# Chain of CD3 on human T cells (P07766 23-207): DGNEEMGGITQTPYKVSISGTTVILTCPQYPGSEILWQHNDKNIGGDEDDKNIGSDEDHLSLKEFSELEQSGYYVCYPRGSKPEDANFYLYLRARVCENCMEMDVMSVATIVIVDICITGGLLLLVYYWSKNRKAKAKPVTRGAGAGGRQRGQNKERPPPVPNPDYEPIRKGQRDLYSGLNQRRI
Binder,EC50 (human B7-H4) [nM],EC50 (murine B7-H4) [nM],EC50 (cynomolgus monkey B7-H4) [nM],EC50 (CD3 on human T cells) [nM],EC50 (human 4-1BB) [nM]
B7-H4×CD3 bispecific antibody PR003733 (bispecific antibody) light: QAVVTQEPSLTVSPGGTVTLTCRSSTGAVTTSNYANWVQQKPGQAPRGLIGGTNKRAPWTPARFSGSLLGDKAALTLLGAQPEDEAEYFCALWYSNLWVFGGGTKLTVLGQPKAAPSVTLFPPSSEELQANKATLVCLISDFYPGAVTVAWKADSSPVKAGVETTTPSKQSNNKYAASSYLSLTPEQWKSHRSYSCQVTHEGSTVEKTVAPTECS heavy: not shown EIVMTQSPASLSVSPGERATLSCRASQSVSSNLAWYQQKPGQAPRLLIYGASTRATGIPARVSGGGSGTEFTLTISSLQSEDFAVYYCQQYKNWPFTFGPGTKLEIKGGGGSGGGGSGGGGSGGGGSQVQLVQSGAEVKKPGSSMRVSCKASEDTFSSYAISWVRQAPGQGLEWMGGTAPIFGTTNYAQKFQGRVTITADKSTSTAYMELSSLRSEDTAVYYCARGGPYFDYWGQGTLVTVSSASEPKSSDKTHTCPPCPAPEAAGGPSVFLFPPKPKDTLMISRTPEVTCVVVDVSHEDPEVKFNWYVDGVEVHNAKTKPREEQYNSTYRVVSVLTVLHQDWLNGKEYKCKVSNKALPAPIEKTISKAKGQPREPQVCTLPPSREEMTKNQVSLSCAVKGFYPSDIAVEWESNGQPENNYKTTPPVLDSDGSFFLVSKLTVDKSRWQQGNVFSCSVMHEALHNHYTQKSLSLSPGK,7.7,~250,5.83,~59.3,
B7-H4×CD3 bispecific antibody PR003899 (bispecific antibody) light: QAVVTQEPSLTVSPGGTVTLTCRSSTGAVTTSNYANWVQQKPGQAPRGLIGGTNKRAPWTPARFSGSLLGDKAALTLLGAQPEDEAEYFCALWYSNLWVFGGGTKLTVLGQPKAAPSVTLFPPSSEELQANKATLVCLISDFYPGAVTVAWKADSSPVKAGVETTTPSKQSNNKYAASSYLSLTPEQWKSHRSYSCQVTHEGSTVEKTVAPTECS heavy: not shown EIVMTQSPASLSVSPGERATLSCRASQSVSSNLAWYQQKPGQAPRLLIYGASTRATGIPARVSGGGSGTEFTLTISSLQSEDFAVYYCQQYKNWPFTFGPGTKLEIKGGGGSGGGGSGGGGSGGGGSQVQLVQSGAEVKKPGSSMRVSCKASEDTFSSYAISWVRQAPGQGLEWMGGTAPIFGTTNYAQKFQGRVTITADKSTSTAYMELSSLRSEDTAVYYCARGGPYFDYWGQGTLVTVSSASEPKSSDKTHTCPPCPAPEAAGGPSVFLFPPKPKDTLMISRTPEVTCVVVDVSHEDPEVKFNWYVDGVEVHNAKTKPREEQYNSTYRVVSVLTVLHQDWLNGKEYKCKVSNKALPAPIEKTISKAKGQPREPQVCTLPPSREEMTKNQVSLSCAVKGFYPSDIAVEWESNGQPENNYKTTPPVLDSDGSFFLVSKLTVDKSRWQQGNVFSCSVMHEALHNHYTQKSLSLSPGK,6.06,~62.5,4.96,~201,
"Urelumab (antibody, V domains shown) VH: QVQLQQWGAGLLKPSETLSLTCAVYGGSFSGYYWSWIRQSPEKGLEWIGEINHGGYVTYNPSLESRVTISVDTSKNQFSLKLSSVTAADTAVYYCARDYGPGNYDWYFDLWGRGTLVTVSS VL: EIVLTQSPATLSLSPGERATLSCRASQSVSSYLAWYQQKPGQAPRLLIYDASNRATGIPARFSGSGSGTDFTLTISSLEPEDFAVYYCQQRSNWPPALTFGGGTKVEIK",,,,,1.63
